Results: US20060251646A1 (CELLACT PHARMA, published 2006)

Experiments:
[1] = target: T1, peptide 6 (TIRC7 derived peptide DLPDASVNGWSSDE); test: method not stated
T1 construct: Fragment of TIRC7, used coated on ELISA plates at 100 ng peptide/well; also called Peptid6
T1 peptide: DLPDASVNGWSSDE

[2] = target: human T-cell immune response cDNA 7 (TIRC7) protein (human, UniProt Q13488 1-830); test: cell-based or functional assay
Chain of human T-cell immune response cDNA 7 (TIRC7) protein (Q13488 whole entry): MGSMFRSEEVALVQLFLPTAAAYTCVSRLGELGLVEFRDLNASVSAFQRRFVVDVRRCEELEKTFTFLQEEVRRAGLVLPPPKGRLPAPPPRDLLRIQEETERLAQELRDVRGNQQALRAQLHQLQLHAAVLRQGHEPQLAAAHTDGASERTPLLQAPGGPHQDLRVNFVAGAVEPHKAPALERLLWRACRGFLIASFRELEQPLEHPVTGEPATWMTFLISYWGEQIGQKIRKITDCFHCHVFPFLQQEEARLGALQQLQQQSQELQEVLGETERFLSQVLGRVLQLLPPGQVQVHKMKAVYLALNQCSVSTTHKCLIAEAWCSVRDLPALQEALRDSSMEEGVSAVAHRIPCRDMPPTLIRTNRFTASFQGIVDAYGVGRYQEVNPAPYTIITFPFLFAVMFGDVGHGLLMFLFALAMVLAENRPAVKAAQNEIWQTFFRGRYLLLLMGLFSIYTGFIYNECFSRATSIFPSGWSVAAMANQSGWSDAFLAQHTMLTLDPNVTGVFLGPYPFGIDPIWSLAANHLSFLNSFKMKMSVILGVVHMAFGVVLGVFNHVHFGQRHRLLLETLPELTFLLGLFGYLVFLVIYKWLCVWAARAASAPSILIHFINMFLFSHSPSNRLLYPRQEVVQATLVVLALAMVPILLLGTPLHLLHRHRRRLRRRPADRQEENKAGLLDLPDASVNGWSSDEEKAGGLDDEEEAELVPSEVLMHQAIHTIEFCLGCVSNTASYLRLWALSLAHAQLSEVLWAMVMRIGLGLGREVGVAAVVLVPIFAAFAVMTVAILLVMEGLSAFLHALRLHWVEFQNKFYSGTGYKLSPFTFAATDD

Binder | Kd [1] | Inhibition of cytokine secretion (IFNγ) calculated relative to the isotype control at the same concentration, PHA-stimulated human PBMC, 10 µg/ml murine Neliximab [2] | Inhibition of cytokine secretion (IFNγ) calculated relative to the isotype control at the same concentration, PHA-stimulated human PBMC, 50 µg/ml murine Neliximab [2] | Inhibition of cytokine secretion (IFNγ) calculated relative to the isotype control at the same concentration, PHA-stimulated human PBMC, 100 µg/ml murine Neliximab [2] | Inhibition of cytokine secretion (IFNγ) calculated relative to the isotype control at the same concentration, PHA-stimulated human PBMC, 200 µg/ml murine Neliximab [2]
murine Neliximab (murine anti-human TIRC7 monoclonal antibody, clone #17) (antibody, V domains shown, also called murine anti-human TIRC7 mAb; murine mAb) VH: EVQLQQSGPELVKPGASVKMSCKASGYTFTTYVMHWVKQKPGQGLEWIGYINPYNDGTNYNEKFKGKATLTSDKSSSTAYMELSTLTSEDSAVYYCAEFITKTVGGSNWYLDVWGAGTTVTVSS VL: QIVLTQSPAIMSASPGEKVTMTCSASSSISYIHWFQQKPGTSPKRWIYDTSKLPSGVPARFSGSGSGTSYSLTISSMEAEDAATYYCHQRSSYTWTFGGGTKLEIKR | 1 nM | 78% | 39% | 20% | 3%
Neliximab (chimeric murine/human anti-human TIRC7 monoclonal antibody) (antibody, V domains shown, also called chimeric Neliximab; chimeric anti-human TIRC7 mAb) VH: EVQLQQSGPELVKPGASVKMSCKASGYTFTTYVMHWVKQKPGQGLEWIGYINPYNDGTNYNEKFKGKATLTSDKSSSTAYMELSTLTSEDSAVYYCAEFITKTVGGSNWYLDVWGAGTTVTVSS VL: QIVLTQSPAIMSASPGEKVTMTCSASSSISYIHWFQQKPGTSPKRWIYDTSKLPSGVPARFSGSGSGTSYSLTISSMEAEDAATYYCHQRSSYTWTFGGGTKLEIK | 1 nM | – | – | – | –
